As usually defined, the Kd is the constant that tells how readily two partners part at equilibrium.

This note sets out measurements from patent publication US20170240613A1 (REGENTS OF THE UNIVERSITY OF COLORADO A BODY CORPORATE, published 2017).

Assay [1] addresses T1, human CD112R (form used in Example 18 not stated) (human), Q6DKI7.
T1 chain: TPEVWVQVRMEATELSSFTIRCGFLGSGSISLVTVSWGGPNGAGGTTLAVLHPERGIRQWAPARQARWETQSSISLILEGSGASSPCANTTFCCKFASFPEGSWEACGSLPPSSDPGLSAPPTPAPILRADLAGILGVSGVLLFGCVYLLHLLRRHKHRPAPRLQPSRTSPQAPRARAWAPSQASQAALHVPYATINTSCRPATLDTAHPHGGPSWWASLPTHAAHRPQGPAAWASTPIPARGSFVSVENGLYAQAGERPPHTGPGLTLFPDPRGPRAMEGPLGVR
The assay is described as follows: flow cytometry, CD112-Fc staining of human CD112R; panel '+2H6'. A general note: A flow cytometer gives signals particle by particle.

In assay [2] the target is T1, human CD112R (form used in Example 18 …). In words: flow cytometry, CD112-Fc staining of human CD112R; panel '+4-4'.
Assay [3] shares this target. The assay is described as follows: flow cytometry, CD112-Fc staining of human CD112R; panel '+4-5'.
The target is the same in assay [4]. In words: flow cytometry, CD112-Fc staining of human CD112R; panel 'None'.
For assay [5], the target named is T2, mouse CD112 on RMA-S cells (RMA-S/mCD112) (mouse, UniProt P32507 32-530).
T2 construct: whole, on cells; also called mCD112 transfectants; RMA-S/mCD112 cells
T2 sequence (looked up): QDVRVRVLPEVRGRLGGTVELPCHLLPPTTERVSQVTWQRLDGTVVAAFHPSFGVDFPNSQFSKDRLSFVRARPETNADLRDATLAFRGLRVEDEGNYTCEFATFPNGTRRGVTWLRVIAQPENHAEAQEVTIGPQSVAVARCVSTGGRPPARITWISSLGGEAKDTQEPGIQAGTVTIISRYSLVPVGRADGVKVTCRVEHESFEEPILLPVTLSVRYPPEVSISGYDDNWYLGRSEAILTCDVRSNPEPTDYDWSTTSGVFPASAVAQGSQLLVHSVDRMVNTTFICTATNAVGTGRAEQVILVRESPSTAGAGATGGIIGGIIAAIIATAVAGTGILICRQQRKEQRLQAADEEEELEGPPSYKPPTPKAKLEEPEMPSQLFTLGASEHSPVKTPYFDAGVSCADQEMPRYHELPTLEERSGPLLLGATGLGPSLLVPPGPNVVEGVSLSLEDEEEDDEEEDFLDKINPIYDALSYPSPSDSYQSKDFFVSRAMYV
The assay is described as follows: flow cytometry, RMA-S/mCD112 cells against control RMA-S cells. An excerpt:
FIG. 3E depicts graphs showing that the CD112R/CD112 interaction was conserved in mice. RMA-S/mCD112 cells (blue), a mouse lymphoma cell line stably expressing mCD112, or control RMA-S cells (red) were stained with mouse CD112R-Fc, mouse CD226-Fc or mouse TIGIT-Fc respectively.

The target in assay [6] is T3, human CD112-Fc fusion protein (human; mouse, UniProt Q92692 32-360).
T3 construct: extracellular domain; Used soluble for cell staining, coated on beads, coated on plates and amine-coupled to a CM5 chip; the Biacore text only says CD112; also called CD112-Ig; CD112 fusion protein; not shown: constant region (Fc) of mouse IgG2a
T3 sequence (looked up): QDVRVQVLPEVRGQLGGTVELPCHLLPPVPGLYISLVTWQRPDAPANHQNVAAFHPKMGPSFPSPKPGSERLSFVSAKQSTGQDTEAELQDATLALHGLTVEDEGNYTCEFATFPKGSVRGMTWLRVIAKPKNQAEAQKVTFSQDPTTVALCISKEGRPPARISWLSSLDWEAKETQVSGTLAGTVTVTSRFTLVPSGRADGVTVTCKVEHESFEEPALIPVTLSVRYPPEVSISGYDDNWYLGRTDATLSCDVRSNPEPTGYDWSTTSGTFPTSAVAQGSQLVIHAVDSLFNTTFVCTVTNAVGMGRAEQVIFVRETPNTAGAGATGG
In words: Biacore 3000, concentration series of CD112R protein over immobilized CD112. An excerpt: (§1) FIG. 3D depicts a graph showing BIAcore3000 analysis of CD112R binding to CD112. A series of concentrations of CD112R protein was used to measure the binding kinetics with immobilized CD112.
(§2) All bio sensor experiments were run on a Biacore 3000 instrument (GE Healthcare, Piscataway, N.J., USA). PBS with 0.005% P20 buffer (Gibco) was used as the running buffer for both the immobilization and kinetics experiments. Amine-coupling chemistry was used to immobilize protein FLAG, CD112 and CD155 to a CM5 sensor chip surface at […]. Kinetic experiments were carried out for three different ligands using three different concentration series: 4, 12, 36, 111, 333 nM of CD112R; 9000, 3000, 1000, 333, 111 nM TGIT; 9000, 3000, 1000, 333, 111 nM PVR L3. All samples were diluted in PBS buffer and were injected for 3 minutes across the surface at a flowrate of 20 flL/min and the dissociation of analyte from the surface-bound ligands was monitored for 5 minutes. All analyte concentrations were performed in duplicate and an unmodified reference flow cell was used to correct for instrument drift and/or noise. Buffer blanks were used to double-reference the obtained kinetic data. Raw sensogram data was processed and fit using the Scrubber software package (Version 2.0b, BioLogic Software, Campbell, Australia; http_www_biologic_com_au).

The target in assay [7] is T3, human CD112-Fc fusion protein. The assay is described as follows: SPR, Biacore 3000, CD112 amine-coupled to CM5 chip, CD112R as analyte at 4-333 nM.
Source text: as §1, §2

Assay [8] shares this target. The assay is described as follows: competition on coated CD112 (beads, flow cytometry): staining by CD112R protein in the presence of rising CD226 protein. From the text:
FIG. 3F depicts graphs showing the competitive binding assay for CD112 among CD112R, CD226, and TIGIT. Coated CD112 was stained by CD112R protein in the presence of different concentration of TIGIT or CD226 protein; on the other hand, coated CD112 were stained by CD226 protein, in the presence of different concentration of CD112R protein.
CD112 is known to interact with both CD226 and TIGIT, though the latter interaction is relatively weak (Bottino et al., 2003; Stanietsky et al., 2009; Yu et al., 2009). It was investigated whether these two counter receptors compete with CD112R for CD112 interaction. CD112 protein was coated on beads, and stained with CD112R protein in the presence of different concentration of TIGIT or CD226 protein. Inclusion of TIGIT had little effect on disrupting this interaction, while CD226 was a good inhibitor of the CD112-CD112R binding (FIG. 3F). […] Because of the weak interaction between CD112 and TIGIT, as well as limited coated CD112 protein on beads, binding between these two molecules by flow cytometry was not observed. […] This conclusion was further supported by the studies that a CD112 mAb, clone TX31, blocked the binding of CD112 to both CD112R and CD226 (FIG. 4B and FIG. 8).

B1: human CD112-Fc fusion protein, Q92692 32-360 (Fc fusion, UniProt Q92692 32-360, looked up, not shown: a dimerising Fc or GST)
chain: T3 sequence (looked up)
As to B1, the 1 subset (share of events in the gate drawn over the histogram) stood at 4.26 in assay [1], 13.8 in assay [2], 12.8 in assay [3] and 11.2 in assay [4].

B2: mouse TIGIT-Fc fusion protein (Fc fusion, UniProt P86176 29-148, looked up)
chain: TIDTKRNISAEEGGSVILQCHFSSDTAEVTQVDWKQQDQLLAIYSVDLGWHVASVFSDRVVPGPSLGLTFQSLTMNDTGEYFCTYHTYPGGIYKGRIFLKVQESSDDRNGLAQFQTAPLG
notes: extracellular domain; also called TIGIT protein; not shown: Fc
As to B2, in assay [5], the binding result was “no binding”.

B3: human CD112R-mFc protein (extracellular domain of human CD112R fused to mouse IgG2a constant region) (Fc fusion)
chain: TPEVWVQVRMEATELSSFTIRCGFLGSGSISLVTVSWGGPNGAGGTTLAVLHPERGIRQWAPARQARWETQSSISLILEGSGASSPCANTTFCCKFASFPEGSWEACGSLPPSSDPGLSARSPRGPTIKPCPPCKCPAPNLLGGPSVFIFPPKIKDVLMISLSPIVTCVVVDVSEDDPDVQISWFVNNVEVHTAQTQTHREDYNSTLRVVSALPIQHQDWMSGKEFKCKVNNKDLPAPIERTISKPKGSVRAPQVYVLPPPEEEMTKKQVTLTCMVTDFMPEDIYVEWTNNGKTELNYKNTEPVLDSDGSYFMYSKLRVEKKNWVERNSYSCSVVHEGLHNHHTTKSFSRTPGK
notes: also called CD112R fusion protein; CD112R protein
As for B3, the Kd in assay [6] was determined as 88.4 nM; in assay [7], 88 nM.

B4: human CD226-Fc fusion protein (Fc fusion, UniProt Q15762 19-254, looked up)
chain: EEVLWHTSVPFAENMSLECVYPSMGILTQVEWFKIGTQQDSIAIFSPTHGMVIRKPYAERVYFLNSTMASNNMTLFFRNASEDDVGYYSCSLYTYPQGTWQKVIQVVQSDSFEAAVPSNSHIVSEPGKNVTLTCQPQMTWPVQAVRWEKIQPRQIDLLTYCNLVHGRNFTSKFPRQIVSNCSHGRWSVIVIPDVTVSDSGLYRCYLQASAGENETFVMRLTVAEGKTDNQYTLFVA
notes: extracellular domain; also called CD226 protein; not shown: constant region (Fc) of mouse IgG2a
In the case of B4, in assay [8], the binding result is “binds”.
